{
  "source": "paper PMC2955292",
  "about": "(Chemistry & biology, 2010)",
  "target": "the molecule itself",
  "test": "AUC",
  "note": "Several values for one entry are separate records, joined by “and”; a condition that tells them apart may be missing. Equal values may be shown once.",
  "data": [
    {"protein": "Escherichia coli ClpP (enzyme) not shown", "values": [
      {"measurement": "stoichiometry N", "result": "14 and 7"}
    ]}
  ]
}
